The values that follow come from US20240069033A1, “METHOD FOR SCREENING FOR CANDIDATE MOLECULE CAPABLE OF FORMING COMPLEX IN CONJUNCTION WITH PLURALITY OF TARGET MOLECULES” (Chugai Seiyaku Kabushiki Kaisha, priority 2020, published 2024).

The target in assay [1] is anti-ubiquitin antibody (Mouse IgG1 monoclonal antibody; clone name FK2). As to the kind of experiment: mRNA display pull-down on anti-ubiquitin antibody (FK2) magnetic beads, qPCR; display molecule at 0.4 µM.
The target is the same in assay [2]. As to the kind of experiment: mRNA display pull-down on anti-ubiquitin antibody (FK2) magnetic beads, qPCR; corrected with the display efficiency.
For assay [3] the target is unchanged. The assay is described as follows: mRNA display pull-down on anti-ubiquitin antibody (FK2) magnetic beads, heat elution, qPCR.
Assay [4] deals with biotinylated GFP1-9. The assay is described as follows: mRNA display pull-down with biotinylated GFP1-9, qPCR.
The target in assay [5] is biotinylated GFP1-9. As to the kind of experiment: mRNA display pull-down with biotinylated GFP1-9, qPCR; corrected with the display efficiency.
The target of assay [6] is biotinylated GFP1-9. As to the kind of experiment: mRNA display pull-down: 0.42 µM Display molecule with 1 µM biotinylated GFP1-9, streptavidin beads, TEV elution, qPCR.
Assay [7] concerns the target T1, biotinylated splitNanoluc1-8.
T1 chain: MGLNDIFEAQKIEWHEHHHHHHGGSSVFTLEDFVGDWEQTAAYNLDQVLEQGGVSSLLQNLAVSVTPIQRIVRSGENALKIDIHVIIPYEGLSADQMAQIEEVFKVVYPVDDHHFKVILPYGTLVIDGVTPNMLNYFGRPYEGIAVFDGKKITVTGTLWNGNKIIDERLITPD
As to the kind of experiment: mRNA display pull-down with biotinylated splitNanoluc1-8, qPCR; corrected with the display efficiency.

Assay [8] shares this target. As to the kind of experiment: mRNA display pull-down: 33 nM Display molecule with 1 µM biotinylated splitNanoluc1-8, streptavidin beads, TEV elution, qPCR.

No end group written: not given here. puromycin linker = puromycin spacer joining the C-terminus of the translated peptide to its mRNA (mRNA display); mRNA = not defined here

B1: Epep-splitUb(N) (protein)
chain: MKVSALENEVSALEKEVSVLEKEVSALEKEVRALEKGSGSGSGSMQIFVKTLTGKTATLEVEPSDTIENVKAKIQDKEGIPGSGSGSGSKK
modifications: C-terminus joined through a puromycin linker to its own mRNA (reverse transcribed before the assay)
As for B1, in assay [1], the Apparent recovery rate (%) is 0.0001% and the Recovered nucleic acid amount (molecules) came to 377000 molecules. The molecule further gave a Recovery rate (%) in assay [2] of 0.0004%.
As for MMQIFVKTLTGKTATLEVEPSDTIENVKAKIQDKEGIPGSGSGSGSKK-{puromycin linker-mRNA} (reading uncertain; also: mRNA reverse transcribed before assay) [splitUb(N)], in assay [3], the Apparent recovery rate (%) was 0.931% and the Recovered nucleic acid amount (molecules) turned out to be 1.63e+10 molecules. In addition, in assay [2], the Recovery rate (%) is 1.04%.
Turning to MEKRDHMVLLEYVTAAGITDASGSGSGSGSKK (modifications not checked) [GFP11], the fold lower recovery rate than the GFP10-11 fusion peptide in the assay with biotinylated GFP1-9 [4] was 1000 times. This molecule also displayed a Recovery rate (%) with biotinylated GFP1-9 [5] of 0.012%. Also, in the assay with biotinylated GFP1-9 [6], the Apparent recovery rate (%) is 0.0109% and the Recovered nucleic acid amount (molecules) turned out to be 8.95e+07 molecules.
The molecule MGSMLFRVTINSGGGSGGGGSGVSGWRLFKKISGSGSGSGSENLYFQGKK (modifications not checked) [splitNanoluc9-10 fusion peptide] had a Recovery rate (%) in assay [7] of 33.2%. In assay [8], the Apparent recovery rate (%) stood at 12.6% and the Recovered nucleic acid amount (molecules) turned out to be 3.45e+09 molecules.
Turning to MDLPDDHYLSTQTILLKDLNGSGSGSGSKK (modifications not checked) [GFP10], the fold lower recovery rate than the GFP10-11 fusion peptide with biotinylated GFP1-9 [4] is 1000 times. Moreover, the Recovery rate (%) in the assay with biotinylated GFP1-9 [5] was determined as 0.028%. Besides, in the assay with biotinylated GFP1-9 [6], the Apparent recovery rate (%) came out at 0.0237% and the Recovered nucleic acid amount (molecules) was determined as 2.32e+08 molecules.
